Here are results for one molecule from patent publication US20220002701A1 (CHILDREN S MEDICAL CENTER, published 2022).

For orientation: Kd means the concentration at which binding is half-saturated. What is called koff is the first-order rate constant of dissociation. In general, kon refers to the second-order rate constant of association. A lower kon goes with slow association.

Where two headings read alike, the source gives them in different places.

Test [1] deals with T1, stabilized soluble SARS-CoV-2 S ectodomain trimer in the pre-fusion conformation (SARS-CoV-2; bacteriophage T4, UniProt P0DTC2 14-1208; P10104 458-484).
T1 construct: also called soluble S trimer; S trimer

The target in test [2] is T1, stabilized soluble SARS-CoV-2 S …. The source holds these as a separate data set.

B1: ACE2615-foldon-K353Y (receptor)
chain: QSTIEEQAKTFLDKFNHEAEDLFYQSSLASWNYNTNITEENVQNMNNAGDKWSAFLKEQSTLAQMYPLQEIQNLTVKLQLQALQQNGSSVLSEDKSKRLNTILNTMSTIYSTGKVCNPDNPQECLLLEPGLNEIMANSLDYNERLWAWESWRSEVGKQLRPLYEEYVVLKNEMARANHYEDYGDYWRGDYEVNGVDGYDYSRGQLIEDVEHTFEEIKPLYEHLHAYVRAKLMNAYPSYISPIGCLPAHLLGDMWGRFWTNLYSLTVPFGQKPNIDVTDAMVDQAWDAQRIFKEAEKFFVSVGLPNMTQGFWENSMLTDPGNVQKAVCHPTAWDLGYGDFRILMCTKVTMDDFLTAHHEMGHIQYDMAYAAQPFLLRNGANEGFHEAVGEIMSLSAATPKHLKSIGLLSPDFQEDNETEINFLLKQALTIVGTLPFTYMLEKWRWMVFKGEIPKDQWMKKWWEMKREIVGVVEPVPHDETYCDPASLFHVSNDYSFIRYYTRTLYQFQFQEALCQAAKHEGPLHKCDISNSTEAGQKLFNMLRLGKSEPWTLALENVVGAKNMNVRPLLNYFEPLFTWLKDQNKNSFVGWSTDWSPYADSGGGGSGGYIPEAPRDGQAYVRKDGEWVLLSTFLGGSHHHHHH
notes: also called Sol-ACE2-Foldon-K353Y
As for B1, the Kd in test [1] was determined as 32.3 nM. Also, in test [2], binding was put at a Kd of 32.3 nM, the ka2 stood at 0.397, the kdis2 was 0.00545 and the koff was determined as 0.00322 s⁻¹. This molecule came in with a kon in test [2] of 99600 M⁻¹ s⁻¹.
